This is an account of results in article PMC8517440, “Structural and Catalytic Characterization of TsBGL, a β-Glucosidase From Thermofilum sp. ex4484_79” (Frontiers in Microbiology, 2021).

Substrate in series [1]: O=[N+]([O-])c1ccc(O[C@@H]2O[C@H](CO)[C@@H](O)[C@H](O)[C@H]2O)cc1
In words: purified protein. The class given is biochemical, Thermofilum sp. ex4484_79. To be noted: pH 5.0, 90°C, 0.1-6.0 mM substrate, kcat printed 135.1 in Table 2.

Substrate in series [2]: O=[N+]([O-])c1ccc(O[C@@H]2O[C@H](CO)[C@H](O)[C@H](O)[C@H]2O)cc1
The experiment in a line: purified protein. Particulars: pH 5.0, 90°C, table header prints mm^-1, text prints 1.05 mm. Type of series: biochemical, Thermofilum sp. ex4484_79.

B1: TsBGL (Thermofilum sp. ex4484_79) (protein)
chain: MPFPEKFFWGASSSGFQFEMGDPEGKSIDPNTDWFKWVHDETNIRRGVVSGDLPEHGINYWDLFRSDHELAASIGMNAYRIGIEWSRIFPKPTLDVRVGIELDPEGYITRVEVDDKAIEELDLLANKEAVSRYREIILDLRDRGLKVFVCLNHFTLPLWIHDPIACRDTKLKRGPKGWVDKTTILEFAKYSAYMAWSLGNIVDYWVTFNEPMVVTEAGYFQPEVGFPPGLRNISAFKTACLNIANAHVVAYDLIKKYDKVRADDDSPSAAYVGIVHNIVPIKPYSERKLDLKAADLMNYIHNKWILEFIVRGKIDRSLVGREKYLIDKFKDKLDWLGVNYYTRIVLKGKWVPPLISPVPVIPDIVKGYGFNCTPGGRSLDGMPVSDFGWEVYPQGLSDALDIASEYGKPLIVTENGIADSEDNIRPYFLVSHLKVLEEYVEKKKNVYGYLHWALTDNYEWAQGFKMRFGLTDVDLETKERKPRESSEVFKIIASEKTVPEELVEKYPKPIF
notes: synthetic gene in E. coli BL21(DE3) pLysS; N-terminal His6-SUMO tag cut with Ulp1; check)
Broadly, the Km is the concentration of substrate that gives half-maximal velocity. One may read the kcat as the maximal rate divided by the concentration of active sites. Broadly, the kcat/Km is the turnover number divided by the Michaelis constant. On to B1, for which, in the series “purified protein [1]”, the Km stood at 617 µM and the kcat amounted to 136.05 s⁻¹. In the series “purified protein [2]”, the Michaelis-Menten constant (Km) stood at 1054 µM, the kcat was determined as 124 s⁻¹ and the kcat/Km came to 118000 M⁻¹ s⁻¹.
